{
  "source": "paper PMC7367873",
  "about": "“Dissecting the sequence determinants for dephosphorylation by the catalytic subunits of phosphatases PP1 and PP2A” (Nature Communications, 2020)",
  "key": {"[1]": {"tested_on": "GFP-14-3-3β and its binding proteins", "assay": "GFP-14-3-3β co-IP with LC-MS/MS label-free quantification, untreated versus PP1c-treated", "parameters": "species or system human", "conditions": "pairwise comparison PP1 vs untreated, 3 replicates each"}, "GFP-14-3-3β": {"tested_on": "GFP-14-3-3β", "assay": "GFP-14-3-3β co-IP with LC-MS/MS, untreated GFP-14-3-3β versus GFP control (14-3-3 interactome)", "assay_type": "binding, human", "conditions": "3 replicates each"}, "[2]": {"conditions": "student's t-test, LC-MS/MS label-free quantification"}, "[3]": {"conditions": "pairwise comparison untreated GFP-14-3-3β vs GFP, student's t-test, LC-MS/MS label-free quantification"}},
  "data": [
    {"molecule": "IRS2 (protein, UniProt Q9Y4H2 1-1338, looked up) Insulin receptor substrate 2: MASPPRHGPPGPASGDGPNLNNNNNNNNHSVRKCGYLRKQKHGHKRFFVLRGPGAGGDEATAGGGSAPQPPRLEYYESEKKWRSKAGAPKRVIALDCCLNINKRADAKHKYLIALYTKDEYFAVAAENEQEQEGWYRALTDLVSEGRAAAGDAPPAAAPAASCSASLPGALGGSAGAAGAEDSYGLVAPATAAYREVWQVNLKPKGLGQSKNLTGVYRLCLSARTIGFVKLNCEQPSVTLQLMNIRRCGHSDSFFFIEVGRSAVTGPGELWMQADDSVVAQNIHETILEAMKALKELFEFRPRSKSQSSGSSATHPISVPGARRHHHLVNLPPSQTGLVRRSRTDSLAATPPAAKCSSCRVRTASEGDGGAAAGAAAAGARPVSVAGSPLSPGPVRAPLSRSHTLSGGCGGRGSKVALLPAGGALQHSRSMSMPVAHSPPAATSPGSLSSSSGHGSGSYPPPPGPHPPLPHPLHHGPGQRPSSGSASASGSPSDPGFMSLDEYGSSPGDLRAFCSHRSNTPESIAETPPARDGGGGGEFYGYMTMDRPLSHCGRSYRRVSGDAAQDLDRGLRKRTYSLTTPARQRPVPQPSSASLDEYTLMRATFSGSAGRLCPSCPASSPKVAYHPYPEDYGDIEIGSHRSSSSNLGADDGYMPMTPGAALAGSGSGSCRSDDYMPMSPASVSAPKQILQPRAAAAAAAAVPSAGPAGPAPTSAAGRTFPASGGGYKASSPAESSPEDSGYMRMWCGSKLSMEHADGKLLPNGDYLNVSPSDAVTTGTPPDFFSAALHPGGEPLRGVPGCCYSSLPRSYKAPYTCGGDSDQYVLMSSPVGRILEEERLEPQATPGPSQAASAFGAGPTQPPHPVVPSPVRPSGGRPEGFLGQRGRAVRPTRLSLEGLPSLPSMHEYPLPPEPKSPGEYINIDFGEPGARLSPPAPPLLASAASSSSLLSASSPASSLGSGTPGTSSDSRQRSPLSDYMNLDFSSPKSPKPGAPSGHPVGSLDGLLSPEASSPYPPLPPRPSASPSSSLQPPPPPPAPGELYRLPPASAVATAQGPGAASSLSSDTGDNGDYTEMAFGVAATPPQPIAAPPKPEAARVASPTSGVKRLSLMEQVSGVEAFLQASQPPDPHRGAKVIRADPQGGRRRHSSETFSSTTTVTPVSPSFAHNPKRHNSASVENVSLRKSSEGGVGVGPGGGDEPPTSPRQLQPAPPLAPQGRPWTPGQPGGLVGCPGSGGSPMRRETSAGFQNGLNYIAIDVREEPGLPPQPQPPPPPLPQPGDKSSWGRTRSLGGLISAVGVGSTGGGCGGPGPGALPPANTYASIDFLSHHLKEATIVKE", "values": [
      {"measurement": "Difference (log2), PP1 vs untreated", "setting": "[1]; [2]", "result": -3.665, "unit": "log2"},
      {"measurement": "Difference (log2), untreated vs GFP", "setting": "GFP-14-3-3β; [3]", "result": 7.914, "unit": "log2"}
    ]},
    {"molecule": "TRAM1 (protein, UniProt Q15629 1-374, looked up) Translocating …: MAIRKKSTKSPPVLSHEFVLQNHADIVSCVAMVFLLGLMFEITAKASIIFVTLQYNVTLPATEEQATESVSLYYYGIKDLATVFFYMLVAIIIHAVIQEYMLDKINRRMHFSKTKHSKFNESGQLSAFYLFACVWGTFILISENYISDPTILWRAYPHNLMTFQMKFFYISQLAYWLHAFPELYFQKTKKEDIPRQLVYIGLYLFHIAGAYLLNLNHLGLVLLVLHYFVEFLFHISRLFYFSNEKYQKGFSLWAVLFVLGRLLTLILSVLTVGFGLARAENQKLDFSTGNFNVLAVRIAVLASICVTQAFMMWKFINFQLRRWREHSAFQAPAVKKKPTVTKGRSSKKGTENGVNGTLTSNVADSPRNKKEKSS", "values": [
      {"measurement": "Difference (log2), PP1 vs untreated", "setting": "[1]; log2 difference, label-free quantification", "result": 1.521},
      {"measurement": "Difference (log2), untreated vs GFP", "setting": "GFP-14-3-3β; log2 difference, pairwise comparison untreated vs GFP, label-free quantification", "result": 0.1201}
    ]},
    {"molecule": "NCKAP1 (protein, UniProt Q9Y2A7 2-1128, looked up) Nck-associated protein 1: SRSVLQPSQQKLAEKLTILNDRGVGMLTRLYNIKKACGDPKAKPSYLIDKNLESAVKFIVRKFPAVETRNNNQQLAQLQKEKSEILKNLALYYFTFVDVMEFKDHVCELLNTIDVCQVFFDITVNFDLTKNYLDLIITYTTLMILLSRIEERKAIIGLYNYAHEMTHGASDREYPRLGQMIVDYENPLKKMMEEFVPHSKSLSDALISLQMVYPRRNLSADQWRNAQLLSLISAPSTMLNPAQSDTMPCEYLSLDAMEKWIIFGFILCHGILNTDATALNLWKLALQSSSCLSLFRDEVFHIHKAAEDLFVNIRGYNKRINDIRECKEAAVSHAGSMHRERRKFLRSALKELATVLSDQPGLLGPKALFVFMALSFARDEIIWLLRHADNMPKKSADDFIDKHIAELIFYMEELRAHVRKYGPVMQRYYVQYLSGFDAVVLNELVQNLSVCPEDESIIMSSFVNTMTSLSVKQVEDGEVFDFRGMRLDWFRLQAYTSVSKASLGLADHRELGKMMNTIIFHTKMVDSLVEMLVETSDLSIFCFYSRAFEKMFQQCLELPSQSRYSIAFPLLCTHFMSCTHELCPEERHHIGDRSLSLCNMFLDEMAKQARNLITDICTEQCTLSDQLLPKHCAKTISQAVNKKSKKQTGKKGEPEREKPGVESMRKNRLVVTNLDKLHTALSELCFSINYVPNMVVWEHTFTPREYLTSHLEIRFTKSIVGMTMYNQATQEIAKPSELLTSVRAYMTVLQSIENYVQIDITRVFNNVLLQQTQHLDSHGEPTITSLYTNWYLETLLRQVSNGHIAYFPAMKAFVNLPTENELTFNAEEYSDISEMRSLSELLGPYGMKFLSESLMWHISSQVAELKKLVVENVDVLTQMRTSFDKPDQMAALFKRLSSVDSVLKRMTIIGVILSFRSLAQEALRDVLSYHIPFLVSSIEDFKDHIPRETDMKVAMNVYELSSAAGLPCEIDPALVVALSSQKSENISPEEEYKIACLLMVFVAVSLPTLASNVMSQYSPAIEGHCNNIHCLAKAINQIAAALFTIHKGSIEDRLKEFLALASSSLLKIGQETDKTTTRNRESVYLLLDMIVQESPFLTMDLLESCFPYVLLRNAYHAVYKQSVTSSA", "values": [
      {"measurement": "Difference (log2), PP1 vs untreated", "setting": "[1]; [2]", "result": -3.667, "unit": "log2"},
      {"measurement": "Difference (log2), untreated vs GFP", "setting": "GFP-14-3-3β; [3]", "result": 2.589, "unit": "log2"}
    ]},
    {"molecule": "USP8 (protein, UniProt P40818 1-1118, looked up) Ubiquitin carboxyl-terminal …: MPAVASVPKELYLSSSLKDLNKKTEVKPEKISTKSYVHSALKIFKTAEECRLDRDEERAYVLYMKYVTVYNLIKKRPDFKQQQDYFHSILGPGNIKKAVEEAERLSESLKLRYEEAEVRKKLEEKDRQEEAQRLQQKRQETGREDGGTLAKGSLENVLDSKDKTQKSNGEKNEKCETKEKGAITAKELYTMMTDKNISLIIMDARRMQDYQDSCILHSLSVPEEAISPGVTASWIEAHLPDDSKDTWKKRGNVEYVVLLDWFSSAKDLQIGTTLRSLKDALFKWESKTVLRNEPLVLEGGYENWLLCYPQYTTNAKVTPPPRRQNEEVSISLDFTYPSLEESIPSKPAAQTPPASIEVDENIELISGQNERMGPLNISTPVEPVAASKSDVSPIIQPVPSIKNVPQIDRTKKPAVKLPEEHRIKSESTNHEQQSPQSGKVIPDRSTKPVVFSPTLMLTDEEKARIHAETALLMEKNKQEKELRERQQEEQKEKLRKEEQEQKAKKKQEAEENEITEKQQKAKEEMEKKESEQAKKEDKETSAKRGKEITGVKRQSKSEHETSDAKKSVEDRGKRCPTPEIQKKSTGDVPHTSVTGDSGSGKPFKIKGQPESGILRTGTFREDTDDTERNKAQREPLTRARSEEMGRIVPGLPSGWAKFLDPITGTFRYYHSPTNTVHMYPPEMAPSSAPPSTPPTHKAKPQIPAERDREPSKLKRSYSSPDITQAIQEEEKRKPTVTPTVNRENKPTCYPKAEISRLSASQIRNLNPVFGGSGPALTGLRNLGNTCYMNSILQCLCNAPHLADYFNRNCYQDDINRSNLLGHKGEVAEEFGIIMKALWTGQYRYISPKDFKITIGKINDQFAGYSQQDSQELLLFLMDGLHEDLNKADNRKRYKEENNDHLDDFKAAEHAWQKHKQLNESIIVALFQGQFKSTVQCLTCHKKSRTFEAFMYLSLPLASTSKCTLQDCLRLFSKEEKLTDNNRFYCSHCRARRDSLKKIEIWKLPPVLLVHLKRFSYDGRWKQKLQTSVDFPLENLDLSQYVIGPKNNLKKYNLFSVSNHYGGLDGGHYTAYCKNAARQRWFKFDDHEVSDISVSSVKSSAAYILFYTSLGPRVTDVAT", "values": [
      {"measurement": "Difference (log2), PP1 vs untreated", "setting": "[1]; [2]", "result": -3.991, "unit": "log2"},
      {"measurement": "Difference (log2), untreated vs GFP", "setting": "GFP-14-3-3β; [3]", "result": 6.726, "unit": "log2"}
    ]}
  ]
}
